Blank lines part the entries; values can stand above or below the substance they belong to.
How the values were obtained:
[1] = target: meHER2-CAR, orientation Lc-Hc28ζ (meditope-enabled trastuzumab Fab-CAR); experiment: flow cytometry of meHer2 (Lc-Hc28ζ) T cells pre-bound to meditope peptide and stained with protein L. Untransduced control, same quadrant: 0.50%.
[2] = target: meHER2-CAR, orientation Hc28ζ-Lc (meditope-enabled trastuzumab Fab-CAR); experiment: flow cytometry of meHer2 (Hc28 ζ-Lc) T cells pre-bound to meditope peptide and stained with protein L. Untransduced control, same quadrant: 0.50%.
[3] = target: meHER2-CAR, orientation Lc-Hc28ζ (meditope-enabled trastuzumab Fab-CAR); experiment: flow cytometry of lentivirally transduced primary human T cells stained with Meditope-AF647, top trace meHer2 (Lc-Hc28ζ). Untransduced control on the sheet: 1.83% MFI:1306.
[4] = target: meHER2-CAR, orientation Hc28ζ-Lc (meditope-enabled trastuzumab Fab-CAR); experiment: flow cytometry of lentivirally transduced primary human T cells stained with Meditope-AF647, middle trace meHer2 (Hc28 ζ-Lc). Untransduced control on the sheet: 1.83% MFI:1306.
[5] = target: meHER2-CAR, orientation Lc-Hc28ζ (meditope-enabled trastuzumab Fab-CAR); experiment: flow cytometry of meHer2 (Lc-Hc28ζ) T cells pre-bound to meditope peptide and stained with protein L. Untransduced control, same quadrant: 0.63%.
[6] = target: meHER2-CAR, orientation Lc-Hc28ζ (meditope-enabled trastuzumab Fab-CAR); experiment: flow cytometry of meHer2 (Lc-Hc28ζ) T cells pre-bound to meditope peptide and stained with protein L. Untransduced control, same quadrant: 7.23%.
[7] = target: meHER2-CAR, orientation Hc28ζ-Lc (meditope-enabled trastuzumab Fab-CAR); experiment: flow cytometry of meHer2 (Hc28 ζ-Lc) T cells pre-bound to meditope peptide and stained with protein L. Untransduced control, same quadrant: 0.63%.
[8] = target: meHER2-CAR, orientation Hc28ζ-Lc (meditope-enabled trastuzumab Fab-CAR); experiment: flow cytometry of meHer2 (Hc28 ζ-Lc) T cells pre-bound to meditope peptide and stained with protein L. Untransduced control, same quadrant: 7.23%.
[9] = target: meHER2-CAR, orientation Hc28ζ-Lc (meditope-enabled trastuzumab Fab-CAR); experiment: flow cytometry of lentivirally transduced primary human T cells stained with protein L, middle trace meHer2 (Hc28 ζ-Lc). Untransduced control on the sheet: 13.16% MFI:1418.
[10] = target: Fab of the meditope-Fab interaction (not specified); experiment: estimated; method not stated
[11] = target: original trastuzumab meFab; experiment: Kinexa experiments, 25° C. (data not shown)

% cells Meditope+ Protein L- (upper left quadrant) [1]: 2.09%
% cells Meditope+ Protein L- (upper left quadrant) [2]: 2.6%
% positive cells (marker gate) [3]: 57.1%
% positive cells (marker gate) [4]: 54.4%
Substance: Meditope-AF647 (peptide)

% cells Meditope+ Protein L+ (upper right quadrant) [5]: 43.1%
% cells Meditope- Protein L+ (lower right quadrant) [6]: 16.1%
% cells Meditope+ Protein L+ (upper right quadrant) [7]: 42.1%
% cells Meditope- Protein L+ (lower right quadrant) [8]: 4.04%
% positive cells (marker gate) [9]: 51.8%
Substance: protein L

half-life of the complex [10]: > 80 days
Kd [11]: 0.014 nM
fold over the affinity of the individual components [11]: 87000 fold
Substance: meditope-protein L fusion (MPL)

Reference: US20200054736A1
